Reference: article PMC7347513 (Cancer Immunology, Immunotherapy : CII, 2020)

Experiments:
[1] = target: T1, HLA A*2402 presenting HCMV pp65 peptide … on cells (Homo sapiens HLA-A*24:02/B2M; HCMV pp65 …, strain); assay: flow cytometry on cells; details: one partner purified
T1 construct: copies: + +

[2] = target: T2, biotinylated HLA A*2402/HCMV pp65 peptide … complex (Homo sapiens HLA-A*24:02/B2M; HCMV pp65 …, strain, biotin (in vivo, BirA, AviTag)); assay: ELISA; details: both partners purified
T2 construct: copies: + +

[3] = target: T3, HLA B*3501 presenting HCMV pp65 peptide … on cells (Homo sapiens HLA-B*35:01 and B2M on …, strain); assay: flow cytometry on cells; details: one partner purified
T3 construct: copies: + +

[4] = target: T4, biotinylated HLA B*0801/HCMV IE1 peptide … complex (Homo sapiens HLA-B*08:01 and B2M; HCMV …, strain, biotin (in vivo, BirA, AviTag)); assay: ELISA; details: both partners purified
T4 construct: copies: + +

B1: biotinylated Fab C12.2 (Fab, V domains shown)
VH: QITLKESGPTLVKPTQTLTLTCTFSGFSLSTSGVAVGWIRQPPGKALEWLALIYWDDDKHYSPSLKNRLTITKDTSKNQVVLTLTNMDPVDTATYYCARMTYSGSWYSFYYFDYWGQGTLVTVSS
VL: EIVLTQSPATLSFSPGERATLSCRASQSVGSYLAWYQQRPGQAPRPLIYDATNRATGIPTRFSGSGSGTDFTLTISSLEPEDFATYYCQHRRTFGRGTKLEIK
notes: source: E. coli TG1, biotinylated in vivo, purified (IMAC, Talon beads)
Q: Does B1 bind [1]?
A: binds

B2: Fab C12/2 (Fab, V domains shown)
VH: B1 VH
VL: B1 VL
Q: Does B2 bind [2]?
A: binds

B3: biotinylated Fab C5 (Fab, V domains shown)
VH: EVQLVQSGAEVKRPGASVKVSCKASGYTFTNYDINWVRQATGQGLEWMGWMNPNSGNTGYAQKFQGRVTITADKSTSTAYMELSSLRSEDTAVYYCARQGRLRFLEWYMFDPWGQGTLVTVSS
VL: DVVMTQSPLSLPVTPGEPASISCRSSQSLLHSNGYNYLDWYLQKPGQSPQLLIYLGSIRASGVPDRVTGSGSGTDFTLQISRVEAEDVGVYYCMQGLQTPYTFGQGTKLEIK
notes: as for B1
Q: Does B3 bind [3]?
A: binds

B4: Fab 2A2 (Fab, V domains shown)
VH: QVQLVQSGAEVKKPGASVKVSCKASGYTFTDYYVHWVRQAPGQGLEWMGRINPNSGGTNYAQKFQGRVTMTRDASISTAYMELSRLRSDDTAVYYCAREMGYGGKSEDYWGQGTLVTVSS
VL: SYVLTQPPSLSVAPGKTARIICGGNNIGSKSVHWYQQKPGQPPVLVVHDDGDRPSGIPERFSGSNSGITATLTITGVEAGDEADYYCQVWDYSSDHVIFGGGTKLTVL
notes: source: E. coli TG1, purified (IMAC, Talon beads)
Q: Does B4 bind [4]?
A: binds
